The record followed here is patent US20080227698A1, “OLIGOPEPTIDES FOR TREATMENT OF OSTEOPOROSIS AND OTHER BONE DISEASES AND METHODS THEREOF” (Washington University, priority 2005, published 2008).

Assay [1] addresses T1, LRP6 (Homo sapiens, UniProt O75581). The assay is described as follows: Cell surface Myc-DKK1 binding and immunodetection on LRP6-transduced HT1080 cells. More on the design: plasmid pCS-Myc-hLRP6 containing the full-length human LRP6 cDNA; HA; expressed in transfected cells; host or cells: human HT1080 cells, stably transduced (pLNCX2 retroviral vector). The conditions noted are these: 1 μM Mesd, room temperature 60 minutes, immunofluorescence. The source says: Values are the means of triple determinations with the s.d. indicated by error bars. Bar, 10 μm.

Assay [2] concerns the target T1, LRP6. The assay is described as follows: LRP6-mediated ^125I-DKK1 degradation in LRP6-transduced HT1080 cells. The assay is classed as cell-based. On the set-up: plasmid pCS-Myc-hLRP6 containing the full-length human LRP6 cDNA; HA; expressed in transfected cells; host or cells: human HT1080 cells, stably transduced (pLNCX2 retroviral vector). The conditions noted are these: 500 nM competitor, 4 hours at 37° C. The protocol: Ligand degradation was performed using the methods as described (Li, Y., J. Biol. Chem. 275: 17187-17194, 2000). Briefly, 2×10^5 cells were seeded into 12-well dishes 1 day prior to assay. Pre-warmed assay buffer (minimal Eagle's medium containing 0.6% BSA with radioligand, 0.6 ml/well) was added to cell monolayers in the absence or the presence of unlabeled 500 nM RAP or 500 nM Mesd, followed by incubation for 4 hours at 37° C. Thereafter, the medium overlying the cell monolayers was removed and proteins were precipitated by addition of BSA to 10 mg/ml and trichloroacetic acid to 20%. […] After each time point, the plates were quickly placed on ice and the assay buffer was replaced with cold stop/strip solution. ^125I-anti-HA IgG that remained on the cell surface was stripped by incubation of cell monolayers with cold stop/strip solution for a total of 20 minutes (0.75 ml for 10 minutes, twice) and counted. Cell monolayers were then solubilized with low-SDS lysis buffer and counted. […] The fraction of internalized ^125I-anti-HA IgG after each time point was calculated and plotted.
RAP is a receptor antagonist for members of the LDLR family, and is able to inhibit the binding of most known ligands of the LDLR family members. […] Cell-surface-bound Myc-tagged DKK proteins were fixed and detected by immunofluorescence staining with anti-Myc antibody. […]

T1 sequence (O75581 20-1613): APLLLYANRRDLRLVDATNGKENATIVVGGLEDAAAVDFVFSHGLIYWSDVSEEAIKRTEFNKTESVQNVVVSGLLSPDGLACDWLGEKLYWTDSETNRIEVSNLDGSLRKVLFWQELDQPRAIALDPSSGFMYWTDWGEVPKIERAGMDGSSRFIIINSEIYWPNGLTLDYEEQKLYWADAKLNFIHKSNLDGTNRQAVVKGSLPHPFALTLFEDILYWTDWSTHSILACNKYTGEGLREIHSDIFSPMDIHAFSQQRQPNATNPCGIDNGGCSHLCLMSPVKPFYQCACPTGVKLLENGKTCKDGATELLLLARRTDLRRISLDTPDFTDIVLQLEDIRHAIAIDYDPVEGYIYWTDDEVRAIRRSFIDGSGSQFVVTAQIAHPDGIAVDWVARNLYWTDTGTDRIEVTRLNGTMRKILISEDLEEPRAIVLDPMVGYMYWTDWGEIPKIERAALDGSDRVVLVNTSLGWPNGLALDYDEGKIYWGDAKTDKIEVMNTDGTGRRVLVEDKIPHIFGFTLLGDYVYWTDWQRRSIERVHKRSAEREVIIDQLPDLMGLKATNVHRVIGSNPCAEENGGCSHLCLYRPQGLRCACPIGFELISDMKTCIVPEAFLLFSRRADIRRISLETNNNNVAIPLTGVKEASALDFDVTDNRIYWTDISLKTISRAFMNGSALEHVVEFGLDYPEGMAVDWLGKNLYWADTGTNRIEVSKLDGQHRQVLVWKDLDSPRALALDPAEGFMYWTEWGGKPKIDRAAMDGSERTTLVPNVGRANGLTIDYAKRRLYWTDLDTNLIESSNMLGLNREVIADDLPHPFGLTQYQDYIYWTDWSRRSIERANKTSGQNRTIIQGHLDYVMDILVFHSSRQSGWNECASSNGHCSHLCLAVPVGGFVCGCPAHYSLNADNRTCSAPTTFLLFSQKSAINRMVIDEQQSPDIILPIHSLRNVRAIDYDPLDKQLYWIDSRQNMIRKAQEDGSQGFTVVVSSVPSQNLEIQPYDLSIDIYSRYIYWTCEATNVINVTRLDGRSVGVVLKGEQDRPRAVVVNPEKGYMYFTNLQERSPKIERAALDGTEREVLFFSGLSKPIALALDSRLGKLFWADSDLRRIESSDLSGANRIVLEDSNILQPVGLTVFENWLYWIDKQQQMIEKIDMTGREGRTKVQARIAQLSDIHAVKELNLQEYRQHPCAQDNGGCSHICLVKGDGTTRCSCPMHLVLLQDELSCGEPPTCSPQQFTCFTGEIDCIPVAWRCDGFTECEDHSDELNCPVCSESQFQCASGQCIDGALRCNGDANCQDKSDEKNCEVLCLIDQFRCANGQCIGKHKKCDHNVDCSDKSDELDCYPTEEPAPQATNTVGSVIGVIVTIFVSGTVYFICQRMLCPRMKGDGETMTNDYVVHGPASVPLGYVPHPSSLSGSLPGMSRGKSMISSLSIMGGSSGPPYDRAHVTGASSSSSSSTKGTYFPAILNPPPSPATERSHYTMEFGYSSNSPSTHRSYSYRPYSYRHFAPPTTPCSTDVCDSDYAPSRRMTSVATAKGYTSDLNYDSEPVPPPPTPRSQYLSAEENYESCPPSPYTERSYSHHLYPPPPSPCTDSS

B1: Mesd: recombinant wild-type mouse Mesd, polyhistidine tail at the N-terminus, lacks the signal peptide, expressed in E. coli (protein)
chain: ADTPGEATPPPRKKKDIRDYNDADMARLLEQWEKDDDIEEGDLPEHKRPSAPIDFSKLDPGKPESILKMTKKGKTLMMFVTVSGNPTEKETEEITSLWQGSLFNANYDVQRFIVGSDRAIFMLRDGSYAWEIKDFLVSQDRCAEVTLEGQMYPGKGGGSKEKNKTKPEKAKKKEGDRKPRASKEDNRAGSRREDL
modifications: left off: small tags and cut ends
notes: recombinant wild-type mouse Mesd, polyhistidine tail at the N-terminus, lacks the signal peptide, expressed in E. coli
On to B1, for which the “Effect on binding of Myc-DKK1 to LRP6 at the cell surface” value with LRP6 [1] is listed as “completely blocked”. Besides, the “Effect of excess unlabeled competitor on increased DKK1 degradation” value in the assay with LRP6 [2] is recorded as “abolished”.
